Results on 41 sequences are retold here after the Immune Epitope Database (IEDB).

Bounds are passed on as bounds.

Targets include HLA-A*68:01; HLA-A*11:01; HLA-A*03:01; HLA-A*31:01; HLA-A*33:01.
Test in all cases: IEDB peptide-MHC binding, purified MHC/competitive/radioactivity; filed as Kd, often an IC50 or EC50 that approximates it; ≥ and ≤ were set here for values at or beyond the usual limits of such assays
[1] abbreviates: source organism: Dengue virus 2 Jamaica/1409/1983.
[2] abbreviates: source organism: Mammarenavirus guanaritoense.
[3] abbreviates: source organism: Vaccinia virus WR.
The mark [4] stands for this setting: source organism: SARS coronavirus Tor2.
Where [5] appears, read: source organism: Dengue virus 3 Martinique/1243/1999.
[6] abbreviates: source organism: Dengue virus 4 Philippines/H241/1956.
Setting [7] is: source organism: Mammarenavirus lassaense.
Setting [8] is: source organism: Dengue virus 4 Thailand/0348/1991.
The mark [9] stands for this setting: source organism: Lymphocytic choriomeningitis virus (strain Armstrong).
Where [10] appears, read: source organism: Dengue virus 1 Brazil/97-11/1997.
The mark [11] stands for this setting: source organism: Mammarenavirus brazilense.

As for PTFAAGLLLR, in the assay with HLA-A*68:01 (setting [1]), the Kd worked out at 0.837 µM.

Turning to LTTLSRTSKK, the Kd with HLA-A*11:01 (setting [1]) worked out at 1.86 µM.

In the case of FFTTSLFLH, the Kd was not below 55.7 µM with HLA-A*03:01 (setting [2]); not below 77.9 µM in the assay with HLA-A*11:01 (setting [2]); 1.19 µM with HLA-A*31:01 (setting [2]); not below 77.7 µM in the assay with HLA-A*33:01 (setting [2]); not below 24.8 µM in the assay with HLA-A*68:01 (setting [2]).

For TVNICIFYDR, the Kd with HLA-A*03:01 (setting [3]) was 0.414 µM; in the assay with HLA-A*11:01 (setting [3]), 0.151 µM; with HLA-A*31:01 (setting [3]), 0.0123 µM; with HLA-A*33:01 (setting [3]), 0.0728 µM; with HLA-A*68:01 (setting [3]) it was 0.0277 µM.

Turning to TFFSTFKCY, the Kd came out at 5.8 µM with HLA-A*03:01 (setting [4]); 4.35 µM with HLA-A*11:01 (setting [4]); 0.797 µM with HLA-A*31:01 (setting [4]); 1.15 µM with HLA-A*33:01 (setting [4]); 1.07 µM in the assay with HLA-A*68:01 (setting [4]).

On to YVCKHTYVDR, for which the Kd turned out to be 0.133 µM with HLA-A*31:01 (setting [5]) and 0.89 µM in the assay with HLA-A*68:01 (setting [5]).

Regarding RLPTFMTQK, in the assay with HLA-A*03:01 (setting [1]), the Kd came out at 0.00236 µM.

For KSMFWDGMDY, the Kd with HLA-A*03:01 (setting [3]) was 0.00579 µM; with HLA-A*11:01 (setting [3]), 0.00175 µM; in the assay with HLA-A*31:01 (setting [3]) it was 0.0772 µM; in the assay with HLA-A*33:01 (setting [3]) it was not below 66.2 µM; with HLA-A*68:01 (setting [3]), 0.511 µM.

With YQNKVVKVLR, in the assay with HLA-A*33:01 (setting [6]), the Kd amounted to 0.446 µM.

As for NVHEHINDQK, the Kd in the assay with HLA-A*03:01 (setting [3]) was 4.05 µM; with HLA-A*11:01 (setting [3]), 18.4 µM; in the assay with HLA-A*31:01 (setting [3]), not below 70 µM; with HLA-A*33:01 (setting [3]), not below 29.2 µM; with HLA-A*68:01 (setting [3]), 0.00438 µM.

Turning to RVRRYQIAQY, the Kd with HLA-A*03:01 (setting [3]) was 0.0206 µM; with HLA-A*11:01 (setting [3]), not below 25.5 µM; with HLA-A*31:01 (setting [3]) it was 2.44 µM; with HLA-A*33:01 (setting [3]), not below 70 µM; in the assay with HLA-A*68:01 (setting [3]) it was 6.34 µM.

For IMFMLIFNVK, the Kd in the assay with HLA-A*03:01 (setting [3]) amounted to 0.157 µM; with HLA-A*11:01 (setting [3]), 0.2 µM; with HLA-A*31:01 (setting [3]), 0.663 µM; with HLA-A*33:01 (setting [3]), 1.22 µM; with HLA-A*68:01 (setting [3]), 0.136 µM.

As to KASMLEKYK, the Kd in the assay with HLA-A*03:01 (setting [3]) is 4.04 µM; with HLA-A*11:01 (setting [3]) it was 0.11 µM; with HLA-A*31:01 (setting [3]), 0.181 µM; in the assay with HLA-A*33:01 (setting [3]), not below 39.2 µM; in the assay with HLA-A*68:01 (setting [3]), 2.85 µM.

For the sequence ELRRAAIDR, the Kd in the assay with HLA-A*03:01 (setting [3]) was not below 78 µM; in the assay with HLA-A*11:01 (setting [3]), not below 77.9 µM; in the assay with HLA-A*31:01 (setting [3]) it was 18.1 µM; in the assay with HLA-A*33:01 (setting [3]) it was 1.09 µM; with HLA-A*68:01 (setting [3]), 0.0832 µM.

For the sequence SHLGPQFCK, the Kd with HLA-A*03:01 (setting [7]) was 0.699 µM; with HLA-A*11:01 (setting [7]), 0.347 µM; in the assay with HLA-A*31:01 (setting [7]), not below 24.2 µM; with HLA-A*33:01 (setting [7]), not below 28.3 µM; with HLA-A*68:01 (setting [7]), 6.22 µM.

For SLTILDDNLY, the Kd was 0.491 µM with HLA-A*03:01 (setting [3]); 3.07 µM with HLA-A*11:01 (setting [3]); not below 47 µM with HLA-A*31:01 (setting [3]); 15 µM with HLA-A*33:01 (setting [3]); 5.99 µM with HLA-A*68:01 (setting [3]).

As to TVMAFHLSTR, the dissociation constant (Kd) in the assay with HLA-A*11:01 (setting [8]) was 0.0694 µM; with HLA-A*31:01 (setting [8]), 0.00592 µM; with HLA-A*33:01 (setting [8]), 0.0213 µM; with HLA-A*68:01 (setting [8]) it was 0.00443 µM.

Take IVTMFEALPH: the Kd with HLA-A*31:01 (setting [9]) was not below 70 µM; with HLA-A*33:01 (setting [9]), 0.0751 µM; in the assay with HLA-A*68:01 (setting [9]), 5.84 µM.

As to KVASAGISYK, the Kd with HLA-A*03:01 (setting [6]) worked out at 0.00314 µM; in the assay with HLA-A*11:01 (setting [6]), 0.0227 µM.

As for TFAAGLLLR, in the assay with HLA-A*33:01 (setting [1]), the Kd stood at 0.0681 µM.

On to ELTLDCEPR, for which the Kd is 0.032 µM with HLA-A*33:01 (setting [6]) and 0.229 µM with HLA-A*68:01 (setting [6]).

In the case of GTSIFAGHLK, the Kd in the assay with HLA-A*03:01 (setting [5]) is 0.00386 µM; with HLA-A*11:01 (setting [5]), 0.0235 µM; in the assay with HLA-A*68:01 (setting [5]), 0.114 µM.

On to TMRCIGISNR, for which the Kd in the assay with HLA-A*31:01 (setting [1]) was determined as 0.00366 µM; in the assay with HLA-A*33:01 (setting [1]), 0.0141 µM.

Regarding ALNDTWKMEK, the Kd was found to be 0.0824 µM with HLA-A*03:01 (setting [1]) and 0.392 µM in the assay with HLA-A*11:01 (setting [1]).

Turning to HMIVSKQER, the equilibrium dissociation constant (Kd) is not below 77.9 µM in the assay with HLA-A*31:01 (setting [10]) and 8.61 µM with HLA-A*33:01 (setting [10]).

Regarding TTNIWLKLR, the results for the Kd in the assay with HLA-A*31:01 (setting [1]) and in the assay with HLA-A*33:01 (setting [1]) were 0.00264 µM and 0.00725 µM, respectively.

Consider NMLKRERNR, for which the Kd with HLA-A*33:01 (setting [1]) is 0.079 µM.

For WSYYMATLK, the Kd with HLA-A*03:01 (setting [6]) turned out to be 0.00333 µM; with HLA-A*11:01 (setting [6]), 0.0161 µM; with HLA-A*68:01 (setting [6]) it was 0.00183 µM.

On to ILKRWGQLKK, for which, in the assay with HLA-A*03:01 (setting [6]), the Kd turned out to be 0.0385 µM.

As for ATCVYNMMGK, the Kd was 0.00191 µM with HLA-A*03:01 (setting [10]) and 0.0201 µM in the assay with HLA-A*11:01 (setting [10]).

For TIEEGRTLR, the Kd in the assay with HLA-A*33:01 (setting [10]) is 0.382 µM.

As for SIMKSVGTGK, the Kd with HLA-A*03:01 (setting [5]) was 0.0083 µM; in the assay with HLA-A*11:01 (setting [5]), 0.0205 µM.

As for YVSAIAQAK, in the assay with HLA-A*68:01 (setting [10]), the Kd was found to be 0.0362 µM.

Consider TVASAAQRR, for which the Kd in the assay with HLA-A*68:01 (setting [10]) amounted to 0.0338 µM.

On to GAMLFLISGK, for which the values for the Kd with HLA-A*03:01 (setting [5]) and with HLA-A*11:01 (setting [5]) were 0.00385 µM and 0.0426 µM, respectively.

On to VTAASAAQRR, for which the Kd with HLA-A*68:01 (setting [5]) was determined as 0.0424 µM.

For the sequence RINGIPQQH, the Kd with HLA-A*03:01 (source organism: Homo sapiens) was determined as 0.11 µM.

On to FFTASLFLH, for which, in the assay with HLA-A*11:01 (source organism: Mammarenavirus juninense), the Kd is 0.247 µM.

As for IVTCAMFTCK, the Kd with HLA-A*03:01 (setting [1]) was found to be 0.362 µM; with HLA-A*11:01 (setting [1]), 0.352 µM.

For the sequence VLARWGTFKK, the dissociation constant Kd with HLA-A*03:01 (setting [5]) was determined as 0.0183 µM.

With CSSLTEEFYH, the Kd in the assay with HLA-A*11:01 (setting [11]) was 8.68 µM; in the assay with HLA-A*31:01 (setting [11]), 3.36 µM; with HLA-A*68:01 (setting [11]), not below 31.9 µM.
